In the assay the target is CD40 on the surface of mature dendritic cells (mDC) (human, UniProt P25942 21-277). Description: cell-based or functional assay.
Sequence of CD40 on the surface of mature dendritic cells (mDC) (P25942 21-277): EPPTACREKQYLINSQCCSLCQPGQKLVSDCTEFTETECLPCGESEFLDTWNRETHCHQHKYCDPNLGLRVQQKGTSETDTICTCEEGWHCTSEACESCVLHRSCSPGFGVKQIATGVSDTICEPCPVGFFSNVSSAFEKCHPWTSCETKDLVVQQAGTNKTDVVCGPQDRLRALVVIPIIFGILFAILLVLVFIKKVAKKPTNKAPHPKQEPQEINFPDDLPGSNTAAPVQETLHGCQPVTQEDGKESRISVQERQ

B1: CD40-PD-L1-IgG4 bispecific antibody (bispecific antibody)
light 1: DIQMTQSPSSLSASVGDRVTIKCQASQSISSRLAWYQQKPGKPPKLLIYRASTLASGVPSRFSGSGSGTDFTLTISSLQPEDVATYYCQCTGYGISWPIGGGTKVEIKRTVAAPSVFIFPPSDEQLKSGTASVVCLLNNFYPREAKVQWKVDNALQSGNSQESVTEQDSKDSTYSLSSTLTLSKADYEKHKVYACEVTHQGLSSPVTKSFNRGEC
heavy 1: not shown
light 2: QVQLVQSGAEVKKPGASVKVSCKASGYTFTSYWMHWVRQAPGQGLEWMGRIGPNSGFTSYNEKFKNRVTMTRDTSTSTVYMELSSLRSEDTAVYYCARGGSSYDYFDYWGQGTTVTVSSASVAAPSVFIFPPSDRKLKSGTASVVCLLNNFYPREAKVQWKVDNALQSGNSQESVTEQDSKDSTYSLSSTLTLSKADYEKHKVYACEVTHQGLSSPVTKSFNRGEC
heavy 2: DIVLTQSPASLAVSPGQRATITCRASESVSIHGTHLMHWYQQKPGQPPKLLIYAASNLESGVPARFSGSGSGTDFTLTINPVEAEDTANYYCQQSFEDPLTFGQGTKLEIKASTKGPSVFPLAPCSRSTSESTAALGCLVEDYFPEPVTVSWNSGALTSGVHTFPAVLQSSGLYSLSSVVTVPSSSLGTQTYTCNVDHKPSNTKVDEKVESKYGPPCPPCPAPEFEGGPSVFLFPPKPKDTLMISRTPEVTCVVVDVSQEDPEVQFNWYVDGVEVHNAKTKPREEQFNSTYRVVSVLTVLHQDWLNGKEYKCKVSNKGLPSSIEKTISKAKGQPREPQVCTLPPSQEEMTKNQVSLSCAVKGFYPSDIAVEWESNGQPENNYKTTPPVLDSDGSFFLVSRLTVDKSRWQEGNVFSCSVMHEALHNHYTQKSLSLSLGK
As to B1, the “increase rate of CD83 positive ratio over control, bispecific antibody” value came out at 19%.

The values are drawn from US12440565 (ZSKY BIOTECH, dated 2025).
